The target in assay [1] is hydrogenated green fluorescent protein [GFP: P42212]. Put plainly: small-angle neutron scattering (SANS); free protein in solution, about 5 mg/mL in Tris-buffer, h-GFP in D2O and d-GFP in H2O, 2-mm quartz cells, ambient conditions; Rg, P(r) and DAMMIF ab initio reconstruction.
In assay [2] the target is deuterated green fluorescent protein [GFP: P42212]. Described as above.

A word on the stoichiometry N: it is a count of units in the complex or per binding partner.

For the substance “hydrogenated green fluorescent protein (from UniProt P42212 2-238) (natural protein)”, in assay [1], the stoichiometry N came out at 2. Turning to “deuterated green fluorescent protein (from UniProt P42212 2-238) (natural protein)”, in assay [2], the stoichiometry N was found to be 2.

Values taken from publication PMC9944321.
